According to patent US5874209:

Key:
[1] = test system: LAP(Asp105)/GAL4 chimera S105D (/ Saccharomyces cerevisiae); experiment: cell_activity; conditions: luciferase relative to LAP(Ser105)/GAL4
[2] = test system: T1, NF-IL6/LAP (wild type, C/EBP beta), P21272-2; experiment: cell_activity; conditions: increase in CAT transactivation with PKC alpha plus TPA, HepG2
T1 sequence: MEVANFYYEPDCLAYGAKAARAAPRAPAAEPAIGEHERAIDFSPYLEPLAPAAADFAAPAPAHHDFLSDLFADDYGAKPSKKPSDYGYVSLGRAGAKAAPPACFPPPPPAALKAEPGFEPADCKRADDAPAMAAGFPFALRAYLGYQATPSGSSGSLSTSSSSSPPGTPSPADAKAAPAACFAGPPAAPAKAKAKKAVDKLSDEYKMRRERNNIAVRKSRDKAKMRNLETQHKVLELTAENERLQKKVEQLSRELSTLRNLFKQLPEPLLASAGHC

Substance | activity [1] [fold] | activity [2] [fold]
5xGAL4-LUC reporter GAL4 sites | 3 | 
D-CAT reporter (albumin D-site) |  | 5
